Reference: paper PMC5562730, “Three recombinantly expressed apple tyrosinases suggest the amino acids responsible for mono- versus diphenolase activity in plant polyphenol oxidases” (Scientific Reports, 2017)

Legend:
purified protein [1] = substrate: NCCc1ccc(O)c(O)c1; assay: purified protein; format: biochemical, Malus domestica; conditions: 50 mM Tris-HCl pH 7.0, 25 °C, 3 mM SDS as activator
purified protein [2] = substrate: NCCc1ccc(O)cc1; assay: purified protein; format: biochemical, Malus domestica; conditions: 50 mM Tris-HCl pH 7.0, 25 °C, 3 mM SDS as activator

B1: MdPPO1 (Malus domestica) (protein)
chain: KPIAPPDVSKCGPADLPQGAVPTNCCPPPSTKIIDFKLPAPAKLRIRPPAHAVDQAYRDKYYKAMELMKALPDDDPRSFKQQAAVHCAYCDGAYDQVGFPELELQIHNSWLFFPFHRYYLYFFEKILGKLINDPTFALPFWNWDSPAGMPLPAIYADPKSPLYDKLRSANHQPPTLVDLDYNGTEDNVSKETTINANLKIMYRQMVSNSKNAKLFFGNPYRAGDEPDPGGGSIEGTPHAPVHLWTGDNTQPNFEDMGNFYSAGRDPIFFAHHSNVDRMWSIWKTLGGKRTDLTDSDWLDSGFLFYNENAELVRVKVRDCLETKNLGYVYQDVDIPWLSSKPTPRRAKVALSKVAKKLGVAHAAVASSSKVVAGTEFPISLGSKISTVVKRPKQKKRSKKAKEDEEEILVIEGIEFDRDVAVKFDVYVNDVDDLPSGPDKTEFAGSFVSVPHSHKHKKKMNTILRLGLTDLLEEIEAEDDDSVVVTLVPKFGAVKIGGIKIEFAS
notes: latent pro-enzyme without transit peptide, C-terminal domain kept; GST tag cut (HRV3C, pGEX-6P-1 SmaI); E. coli BL21
Km (purified protein [1]): 480 ± 38 µM
kcat (purified protein [1]): 100 ± 4.54 s⁻¹
Km (purified protein [2]): 710 ± 36 µM
kcat (purified protein [2]): 9.5 ± 0.43 s⁻¹
